Source: PMC12813979, “A Site-Specific Self-Association of a Protein Hub Drives Its Phase Separation” (ACS Chemical Biology, 2025)
* marks the point of attachment. Biotin = O=C1N[C@H]2[C@H](CS[C@H]2CCCCC(=O)*)N1

Tests used:
[1] = target: WD40 repeat protein 5 (WDR5), full-length (human, UniProt P61964 1-334); test: BLI; biotinylated MLL3Win peptide immobilised on streptavidin sensors; WDR5 (0.11-9.0 µM) or ΔN-WDR5 (0.10-9.0 µM) in the wells; 150 mM KCl, 20 mM Tris-HCl, 1 mM TCEP, 1 mg/mL BSA, pH 7.5; global fit of kon and koff, KD derived indirectly from them; triplicates; conditions: both partners purified
[2] = target: N-terminus truncated WDR5, WDR5 23-334 (human, UniProt P61964 23-334); test: as above; conditions: both partners purified

B1: Win-like motif-based peptide ligand of mixed lineage leukemia 3 (MLL3Win) (peptide)
chain: Biotin-VNPTGCARSEPKMS-NH2
SMILES: CSCC[C@H](NC(=O)[C@H](CCCCN)NC(=O)[C@@H]1CCCN1C(=O)[C@H](CCC(=O)O)NC(=O)[C@H](CO)NC(=O)[C@H](CCCNC(=N)N)NC(=O)[C@H](C)NC(=O)[C@H](CS)NC(=O)CNC(=O)[C@@H](NC(=O)[C@@H]1CCCN1C(=O)[C@H](CC(N)=O)NC(=O)[C@@H](NC(=O)CCCC[C@@H]1SC[C@@H]2NC(=O)N[C@@H]21)C(C)C)[C@@H](C)O)C(=O)N[C@@H](CO)C(N)=O
Kd [1]: 190 nM | koff [1]: 0.012 s⁻¹ | kon [1]: 66000 M⁻¹ s⁻¹ | Kd [2]: 170 nM | koff [2]: 0.0097 s⁻¹ | kon [2]: 63000 M⁻¹ s⁻¹
